Reference: patent US8507443B2, “Anticancer agent” (The Research Foundation for Microbial Diseases of Osaka …, priority 2005, dated 2013)

Tests used:
HB-EGF = HB-EGF (Homo sapiens, UniProt Q99075); assay: Inhibition of binding of 125I-labeled diphtheria toxin to HB-EGF
HB-EGF, sequence (Q99075 63-148): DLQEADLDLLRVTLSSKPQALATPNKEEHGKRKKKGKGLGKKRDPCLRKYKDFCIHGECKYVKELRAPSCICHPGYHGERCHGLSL

## GST-DT
Vero cells
  toxicity of diphtheria toxin: do not have the toxicity of diphtheria toxin substantially
HB-EGF
  activity to inhibit the binding of HB-EGF to EGFR: inhibit the binding of HB-EGF to EGFR
  inhibition of the binding of 125I-labeled diphtheria toxin to HB-EGF: in a dose dependent manner
